40 sequences from the nanobody polyreactivity screen of Harvey et al. (2022) can be followed below.

This data set can be described thus: yeast display, Sf9 membrane polyspecificity reagent, FACS + sequencing; frameworks hold sequencing errors. The essentials: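 Galactose-induced (36–48 hours) yeast carrying a synthetic nanobody display library were exposed to 10% biotinylated, detergent-solubilized Sf9 membrane reagent at 4 °C for 1 hour. FACS followed streptavidin microbead enrichment, using low and high (top ~1%) gates for expression (anti-HA) and reagent binding (streptavidin). Colony PCR, MiSeq 2 × 250 sequencing and CDR-length filtering followed. Labels for polyreactivity reflect the gate of origin.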
With “QVQLVESGGGLVQAGGSLRLSSAASGFIFTDYAMGWYIEAPGKEREFVAAIDWSGGNTYYADSVKGRFTISRDNAKNTVYLQMNSLKPEDTAVYYCAASGSAREYDYWGQGSQVTVSS”, the “polyreactivity (PSR sort gate)” value is on record as “low polyreactivity”. For “QVQLVESGGGLVQAGGSLRVSCAASGSTFYYYAMGGYSQAPGKERELVAAISSRGGSTYYADSVKGRFRISRDNAKNTVYLQMNSLKPEDTAVYYCAASSQRISPDHDYWGQGTQVTVSS”, the “polyreactivity (PSR sort gate)” value is on record as “high polyreactivity”. With “QFQLVESGGGLVQAGGSLRLSCAASGRTFSGNTMGWYRQAPGKERELVAAITGRGGSTYYADSVKGRFTISRDNAKNTVYLQMNCLKPEDTAVYYCAALRYTFAGRFDYWGQGTQVTVSS” the entry was “high polyreactivity”; with “QVQLVESGGGLVQAGGSLRLSCSASGRILYSYSMGWYRQAPGKEREFVAAIRRSGGSTYYADSVKGRFTISRDNAKNTVYLQMNSLKPEDTAVYYCAAGRRYSGSYDYWGQGTQVTVSS”, “high polyreactivity”; with “QVQLVESGGGLVQAGGSLRLSCAASGFIFDGNAMGWYRQAPGKERELVAAIRSGGRPTYAPSVKGRFTSSRDNAKNTVDLQMNSLNPEDTAVYYCAARSIYPYYYRRDNRYYYWGQGTQVTVSS”, “high polyreactivity”.

“QVQLVESGGGLVQAGGSLRLSCAASGSIFVNYAMGWFRQAPGKERELVAAITRSGGRTYYADSVKGRFTISRDNAKNTVYLQMNSLKPEDTAVYYCAARLGYAGNRDGSWGQGTQVTVSS”: the “polyreactivity (PSR sort gate)” value is “high polyreactivity”. Then “QVQLVESGGGLVQAGGSLRLSCAASGLTLSGNAMGWYRQAPGKETELVAAITGRGGSTTYADSVKGRFTISRDNAKTTVYLQMNSLKPEDTAVYYCAADHAWYSLFDYWGQGTQVTVSS”, with “low polyreactivity”. With “QVQLVESGGGLVQAGGSLRLSCAASGSIFLYNAMGWYRQAPGKERELVAAISAIGSNTYYADSVKGRFTISRDNAKNTVYLQMNSLKPEDTAVYYCAAESVNVVNFGTRVGYWGQGTQVTVSS” the entry was “high polyreactivity”; with “QVQLVESGGGLVQAGGSLRLSCAASGRIFYYYAMRWYRQAPGKERELVATISGIGGSTYYADSVKGRFTISRDNAKNTVYLHMNSLKPEDTAVYYCNADYPTSYPLLKSGFDYWGQGTQVTVSS”, “low polyreactivity”. With “QVQLEESRGGLVHAGGSLRLSCAASGYSFYIYAMGWYRQAPGKERELVAAISSSGGRTYYADSVKGRFTISRDNAKNTVYLQMNSLKPEDTAVYYCNALYRYGWLYAPKYNSCGQGTQVTVSS” the entry was “high polyreactivity”. “QVQLVESGGGLDQAGGSLRLSCAASGRTFVVYAMGWYRQAPGKERELVAAITSSGNTYYADSVKGRFTISRDNAKNTVYLQMNSLKPEDTAVYYCAAYSLYGYDYWGQGTQVTVSS”: the “polyreactivity (PSR sort gate)” value is “low polyreactivity”. As to “QVQLVESGGGLVQAGGSLRLSCAASGFTFVGNAMGWYRQAPGLERELVAAITRGGSSYYADSVKGRFTISRDNAKKTVYLQMNSLKPEDTAVYYCNAELPVHWSWYDYWGQGTQVTVSS”, the “polyreactivity (PSR sort gate)” value is reported as “low polyreactivity”. Regarding “QLQLVESGGRLVQAGGSLRLSCAATGFTFGGYAMGWYRQAPGKESELVARIRRSGGSTYYADSVKGRFTISRDNAKNTVYLQMTSLKPEDTAVYYCAAGYSRGQYRYNYWGQGTQVTVSS”, the “polyreactivity (PSR sort gate)” value is “high polyreactivity”. Then “QVQLVESVGGLVQAGGSLRLSCAASGRIFYFYAMGWYRQAPGKERELVASISSGSSTNYADSVKGRFTISRDNAKNTVYLQMNSLKPEDTAVYYCAAQPWHGSRPRSYYWGQGTQVTVSS”, with “high polyreactivity”; and “QVQLVESGGGLVQAGGSLRLSCAASGRTFYVYTMGWYRQAPGKERELVAAISSGGTTNYADSVKGRFTISRDNAKNTVYLQMNSLKPEDTAVYYCATERGYRYRGPLRVNYDYWGQGTQVTVSS”, with “low polyreactivity”; and “QVQLVESGGGLVQAGGSLRLSCAASGSTFAYYAMGWYRQAPGKESELVAAISSGGSTYYADSVKGRFTISRDNAKNTVYLEMFCLKGDDTAVYYCNKLWVGKFKRYEFGYWGQGTQVTVSS”, with “low polyreactivity”. With “QVQLVESGGGLVQAGRSLRLSCAASGLTFRVYPMGWYRQAPGKDRELVAAITGGGGSTYADSVKGRFTISRDNAKNTVYLQMYSLKPEDTAVSYCNKKGYYYKFDYWGQGTQVTVSS” the entry was “low polyreactivity”; with “QVQLVESGGGLVQAGGSLRLTCAASGIIFRVYAMGWYRQATGKERELVAAISQRGGSTYYADSVKGRFTISRDNAKNTVYLLMNSLKPEDTAVYYCAATAPAAAYRARYGYDYWGQGTQVTVSS”, “high polyreactivity”.

In the case of “QVQLVESGGGLVQAGGSLRLTCAASGRTLVPYVMGWYRQAPGKERELVASITSGGSTYYADSVKGRFTISRDNAKNTVYLQMNSLKPEDTAVYYCATRQSAERWGYYYWGQGTQVTVSS”, the “polyreactivity (PSR sort gate)” value is recorded as “low polyreactivity”. With “QVLLQESGGGLVQAGGSLRLSCAASGNIFSAGGMGWYRQAPVNERELVAGIGTGTSTNYADRVKGRFTISRDNAKNTVYLQMNSLKPEDTAVDYCAAAYYSGLSHWYWGQGTQVTVSS” the entry was “low polyreactivity”; with “QVQLVESGAGLVQAGGSLRLSCAASGRTFGTNTKGWYRPAPGKEREFVATITSSGGSTYYADSVKGRFTISRDNAKNTVYLQMNSLKPEDTAVYYCATDPYGGKTQYPSLRYDYWGQGTQVTVSS”, “low polyreactivity”. For “QVQLVESGGGVVQAGGSLRFSCAASGSIFPGYAMGWYRQAPGKEREMVATITWSGGTTYYADSVKGRFTISRDYAKNTVYFQMNSLKPEDTAVYYCNATFGYPFLDYDDYWGQGTQVNVSS”, the “polyreactivity (PSR sort gate)” value is given as “low polyreactivity”. For the sequence “QVQLVESGGGLVQAGGSLRLSCAASGSIFVSYTMGWYRQAPGKERELVAAITRSGGSTYYADSVKGRFTISRDNAKNTVYLQMNSLKPEDTAVYYCAAGTVDYRGYFEMYFWGQGTQVTVSS”, the “polyreactivity (PSR sort gate)” value is on record as “low polyreactivity”.

Turning to “QVQLVESGGGLVQAGGSLRLSCAASGSIFYSYAMGWYRQAPGKERELVARINYRGGSTYYADSVKGRFTISRDNAMNTVYLQMNSLKPEDTAVYYCAKRSYWSSNPRDYWGQGTQVTVSS”, the “polyreactivity (PSR sort gate)” value is “high polyreactivity”. With “QVQLVESGGGLVQAGGSLRLICAASGRILWYYAMGWYRQAPGKERELVAAITSSGRTKYADSVKGRFTISRDNAKNTVYLQMNSLKPEDSAVYYCAARPSQWNYDYRRVYYWGQGTQVTVSS” the entry was “high polyreactivity”. Then “QVQLVESGGGLVQAGGSLRLICAASGSTFYIYAMGWYRQAPGKERELGATISSTGSTHYADSVKGRFTISRDNAKNTVYLQMNSLKPEDTAVYYCNRVYFGRYSRRDHWGQGTQVTVSS”, with “high polyreactivity”; and “QVHLVESGGGLVQAGGSLRLSCGASGIIFFHYAMGWYRQAPGKERELVAAITWSGGYTYYADSVKGRFTISRDNAKNTVYLQMNSLKPEDTAVYYCNAVLHRRLYDYWGQGTQVTVSS”, with “high polyreactivity”; and “QVQLVESGGGLVQALGSLRLSCAASGFIFGYNAMGWYRQAPGQERELVAAISSSGGSTYYADSVKGRFTISRDNAKNTVYLQMNSLKPEDTAVYYGAARPVALRKYDYWGLGTQVTVSS”, with “low polyreactivity”. Then “QVQLVESGGGLVQAGGSLRLTCAASGFTFPSYPMVWYRQAPGKERELVAAITRSGVRTYYADSVKGRFTISRDNAKNTVYFQMNSLKPEDTAVYYCAAVYPRQVSQVWRDDFWGQGTQVTVSS”, with “high polyreactivity”; and “QVQLVESGGGLVQAGGSLRLSCAASGFTFDIYAMGWYRQAPGKERELVATISFTGDTTSYADSVKGRFTISRHNAKNTVYLQMNSLKPEDTAVYYCAADGSYPLSVGRENLHYAEFDYWGQGTQVTVSS”, with “low polyreactivity”; and “QVQLVESGGGLVQAGGSLRLSCAASGLTFAVYAMGWYRQAPGKERELVAAITYSGSRTYYADSVKGRFTISRDNAKNTVYLQMNSLKPEDTAVYYCNALYRRDIKFYYWGQGTQVTVSS”, with “high polyreactivity”.

“QVQLVESGGGLVQAGGSLRLSCDASGRIFRVYAMGWYRQAHGKERQLVAAIRWTGGSTYYADSVKGRFKISRDNAKNTVYLQMNSLKPEDTAVYYCAAGRYYSDGSRTIYDYWGQGTQVTVSS”: the “polyreactivity (PSR sort gate)” value is “low polyreactivity”. Then “QVQLVESAGGLVQAGGSLSLSCAASGRTFVIYAMGSDRQAPGKERELVAGIDSGTSTYADSVKGRFTISRDNAKNTVYLQMNSLKPEDTAVYYCAADFAPDGAGWYIPGDYDSWGQGTQVTVSS”, with “low polyreactivity”.

For the sequence “QVQIVESGGGLVQAGGSLRLSCAASGRTFFPYAMGWYRQAPGKEREFVAAITKTDDSTYYADSVKGRFTISRDNAKNTVYLQMNSLKPEDTAVYYCAADRSISADYVVSVDYDYWGQGTQVTVSS”, the “polyreactivity (PSR sort gate)” value was “low polyreactivity”. Take “QVQLVESGGGLVQAGGSLRLSCAASGITIGSNVMGWYRQAPGKERELVAAISQSGGRTYYADSVKGRFTISRDNAKNTVYLQMNSLKPEYTAVYYCAKRQRSFYGRPMGDYWGQGTQVTVSS”: the “polyreactivity (PSR sort gate)” value is recorded as “high polyreactivity”.

With “QVQLVETGGGLVQAGGILRLSCAASGLTIIYYAMGWYRQSPGKERELVAAISGSVGSTYYADSVQGRFTISRDNAKNTVYLQMNSLKPEDTAVYYCNADRWGFGNVRKYDYWGQGTQVTVSS”, the “polyreactivity (PSR sort gate)” value is “low polyreactivity”. In the case of “QVHLLESGGGLDHAGGSLRLSCAASGRIFRYYFMGWYRQAPGKERELVAAISRGGRTYYADSVKGRFTISRDNAKNTVYLQMNSLKPEDTAVYYCDAVITQTDTGYGPSFRVYYWGQGTKVTVSS”, the “polyreactivity (PSR sort gate)” value is “high polyreactivity”. In the case of “QVQLVESGGGLVQAGGSLRLSCAASGLTFSGYSMGWYRQAPGKERELVAAITSGGNTYYADSVNGRFTISRDNAKNTVYLQMNSLKPEDTAVYYCNVADWRRWGYDYWGQGTQVTVSS”, the “polyreactivity (PSR sort gate)” value is “low polyreactivity”. With “QVQLVESGGGLVQAGGSLRLSCAASGFIFKRYAMGWYRQAPGKERELVAAISTYSGGRTYYADSVKGRFTISRDNAKNSVYLQMNSLKPEDTAVYYCNARKYVGFWSRYDYWGQGTQVTVSS” the entry was “high polyreactivity”.

For “QVQLVESGGGLVQAGGSLRISCAASGSTFYYYAMGWYRQAPGKEREFVAAITFRCGTTYYADSVKGRFTISRDYAKNTVYLQMNSLKREDTAVYYCDAKPPFRNYVRYDYWGQGTQVTVSS”, the “polyreactivity (PSR sort gate)” value was “high polyreactivity”.
